The target in assay [1] is T1, Ebola GP ectodomain (Mayinga, Zaire, 1976) with the mucin-like domain deleted (Zaire ebolavirus (Mayinga, 1976), UniProt Q05320 33-650).
Assay [2] deals with T1, Ebola GP ectodomain (Mayinga, Zaire, …). This is another data set of the same source.
The target is the same in assay [3]. Description: BLI, Fab.

Read-outs that look alike come from different tables or passages of the source.

Data on 2 molecules can be found in US20250243261A1 (CZ BIOHUB SF, published 2025).

Usually Kd stands for the equilibrium constant for the complex coming apart. A low value points to a tighter complex.

B1: mAb114 VH D42G-A68T-S79Y / VL V43A Fab (Fab, V domains shown)
VH: EVQLVESGGGLIQPGGSLRLSCAASGFALRMYDMHWVRQTIGKRLEWVSAVGPSGDTYYADSVKGRFTVSRENAKNSLYLQMNSLTAGDTAIYYCVRSDRGVAGLFDSWGQGILVTVSS
VL: DIQMTQSPSSLSASVGDRITITCRASQAFDNYVAWYQQRPGKAPKLLISAASALHAGVPSRFSGSGSGTHFTLTISSLQPEDVATYYCQNYNSAPLTFGGGTKVEIK
On to B1, for which, in assay [1], the “fold improvement in Kd vs wildtype” value came to 3 fold. The same molecule had a Kd in assay [2] of 0.06 nM.

B2: mAb114 UCA WT Fab (Fab, V domains shown)
VH: EVQLVESGGGLVQPGGSLRLSCAASGFTFSSYDMHWVRQATGKGLEWVSAIGTAGDTYYPGSVKGRFTISRENAKNSLYLQMNSLRAGDTAVYYCVRSDRGVAGLFDSWGQGTLVTVSS
VL: DIQMTQSPSSLSASVGDRVTITCRASQGISNYLAWYQQKPGKVPKLLIYAASTLQSGVPSRFSGSGSGTDFTLTISSLQPEDVATYYCQKYNSAPLTFGGGTKVEIK
B2 showed a Kd in assay [3] of 75 µM.
